# Data: US20130330359A1
# Assays:
# [1] = target: carrier free RGMb (R&D Systems) (UniProt Q6NW40); experiment: direct EIA: carrier-free RGMb coated at 0.5 ug/mL; sample at 2 ug/ml; goat anti-mouse IgG-HRPO
# [2] = target: carrier free RGMc (R&D Systems) (human) (UniProt Q6ZVN8); experiment: direct EIA: carrier-free RGMc coated at 0.5 ug/mL; sample at 2 ug/ml; goat anti-mouse IgG-HRPO
# [3] = target: carrier free RGMa (R&D Systems) (UniProt Q96B86); experiment: direct EIA: carrier-free RGMa coated at 0.5 ug/mL; sample at 2 ug/ml; goat anti-mouse IgG-HRPO
# Chain of carrier free RGMa (R&D Systems) (Q96B86 48-422 limits assumed): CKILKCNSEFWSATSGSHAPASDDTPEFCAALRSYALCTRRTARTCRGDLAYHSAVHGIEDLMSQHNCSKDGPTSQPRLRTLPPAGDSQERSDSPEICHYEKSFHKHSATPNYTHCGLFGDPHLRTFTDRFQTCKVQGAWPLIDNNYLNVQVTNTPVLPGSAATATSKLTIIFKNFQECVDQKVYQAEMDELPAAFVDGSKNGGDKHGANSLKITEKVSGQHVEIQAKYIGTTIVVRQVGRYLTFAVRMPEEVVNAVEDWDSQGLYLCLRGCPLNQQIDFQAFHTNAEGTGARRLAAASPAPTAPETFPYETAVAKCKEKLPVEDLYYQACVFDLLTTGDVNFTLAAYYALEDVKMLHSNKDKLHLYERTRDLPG
# Chain of carrier free RGMb (R&D Systems) (Q6NW40 46-413 limits assumed): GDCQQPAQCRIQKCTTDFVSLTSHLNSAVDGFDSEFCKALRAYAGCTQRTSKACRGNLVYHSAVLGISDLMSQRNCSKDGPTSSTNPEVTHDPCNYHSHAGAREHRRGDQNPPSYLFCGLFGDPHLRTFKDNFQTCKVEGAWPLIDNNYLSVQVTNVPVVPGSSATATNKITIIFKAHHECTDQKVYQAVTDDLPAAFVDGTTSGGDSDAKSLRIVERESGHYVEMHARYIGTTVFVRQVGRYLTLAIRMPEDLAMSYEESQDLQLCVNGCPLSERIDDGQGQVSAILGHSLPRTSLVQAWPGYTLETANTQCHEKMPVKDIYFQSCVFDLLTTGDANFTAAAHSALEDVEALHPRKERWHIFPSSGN
# Chain of carrier free RGMc (R&D Systems) (human) (Q6ZVN8 36-400 limits assumed): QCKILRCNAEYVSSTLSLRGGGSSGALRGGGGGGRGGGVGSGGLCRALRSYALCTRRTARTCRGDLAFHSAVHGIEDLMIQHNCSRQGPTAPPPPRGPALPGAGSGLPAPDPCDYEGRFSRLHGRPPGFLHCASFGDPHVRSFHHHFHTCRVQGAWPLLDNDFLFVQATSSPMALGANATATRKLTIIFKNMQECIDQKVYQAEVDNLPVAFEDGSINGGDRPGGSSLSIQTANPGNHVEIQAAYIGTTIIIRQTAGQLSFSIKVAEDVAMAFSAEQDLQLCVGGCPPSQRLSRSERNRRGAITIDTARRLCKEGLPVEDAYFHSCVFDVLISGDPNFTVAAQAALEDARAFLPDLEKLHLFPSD
substance,measurement,setting,value
negative control: purified mouse mAb from an irrelevant / different antigen system (antibody),absorbance at 492 nm,[1],0.09
same,absorbance at 492 nm,[2],0.14
same,absorbance at 492 nm,[3],0.1
